± gives the standard deviation of the averaged measurements.
Tested on: ATP
Test: switch fluorescence ratio, 500 uM ATP over buffer (Cy3 cluster intensity, sum of 5 cycles each) (fold (ratio)); higher = stronger signal-on switching upon ATP binding; sequences stand for … in TCGTCGGCAGCGTCAGATGTGTATAAGAGACAGTTTTTTTTTTTTTTTTTTTTTTTTT…TC
Settings: aptamer strand: ATP DNA aptamer (quencher-CACCTGGGGGAGTATTGCGGAGGAAGG + anchor), 100 nM annealed; ATP concentration: 500 uM
Method in brief: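 Values give the fluorescence ratio for each switch-domain sequence, averaged from per-cluster ratios of summed target-cycle to summed buffer-cycle Cy3 intensity. The Cy3-labelled switching-strand clusters sat on a modified Illumina MiSeq flow-cell, were annealed to 100 nM quencher-labelled ATP aptamer, and were imaged in selection buffer, then after 15 min with 500 uM ATP at 22 °C. Five cycles ran with NaOH stripping and re-annealing between them, and clusters outside 100-1000 RFU were excluded.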
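Further: ATP exposure 15 min at 22 °C before imaging.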

Row | Sequence | switch fluorescence ratio
1 | CGTTTTTTTA | 0.992 ± 0.018
2 | CGTTTTTTTC | 1.007 ± 0.01
3 | CTAAAAGAGG | 0.997 ± 0.019
4 | CTAAAAGGGG | 1.02 ± 0.021
5 | CTAAAGTACT | 1.11 ± 0.041
6 | CTAAATATTG | 0.989 ± 0.015
7 | CTAACGCGCA | 1.11 ± 0.0043
8 | CTAAGCCCGG | 1 ± 0.011
9 | CTAAGGGAAG | 0.9781 ± 0.00035
10 | CTAAGTATGG | 0.9938 ± 0.0096
11 | CTAATAGTTT | 1 ± 0.032
12 | CTAATATTAA | 0.999 ± 0.018
13 | CTAATCGCTG | 1.05 ± 0.034
14 | CTAATTAGAT | 1 ± 0.022
15 | CTAATTATGA | 1.01 ± 0.048
16 | CTAATTCTG | 0.98 ± 0.018
17 | CTAATTGCGG | 1.01 ± 0.013
18 | CTAATTGTTT | 0.973 ± 0.025
19 | CTAATTTACA | 1.081 ± 0.0097
20 | CTAATTTGCT | 1.04 ± 0.056
21 | CTACAAAGGG | 1.005 ± 0.0037
22 | CTACAGGGGG | 1.08 ± 0.018
23 | CTACGATCGA | 1.02 ± 0.015
24 | CTACGGGCTG | 0.9898 ± 0.0069
25 | CTACTTTAGA | 0.993 ± 0.036
26 | CTAGAAAGGG | 0.999 ± 0.02

Row | Sequence | switch fluorescence ratio
27 | CTAGAAGGCG | 1.02 ± 0.052
28 | CTAGAATAGG | 0.985 ± 0.028
29 | CTAGACAGTT | 0.997 ± 0.02
30 | CTAGAGGCTG | 1.03 ± 0.073
31 | CTAGAGGGAT | 1.02 ± 0.038
32 | CTAGAGGGTA | 0.98923 ± 0.00094
33 | CTAGATTCGT | 0.996 ± 0.017
34 | CTAGCGAGGG | 1.01 ± 0.014
35 | CTAGCGGCCA | 0.991 ± 0.012
36 | CTAGCGGGGG | 0.993 ± 0.034
37 | CTAGCTATGT | 1 ± 0.067
38 | CTAGGAGTTT | 0.999 ± 0.011
39 | CTAGGCAATG | 1.44 ± 0.67
40 | CTAGGCCTGG | 1.013 ± 0.0081
41 | CTAGGGGACG | 1.03 ± 0.032
42 | CTAGGTAACG | 1.02 ± 0.033
43 | CTAGGTCGGC | 0.994 ± 0.042
44 | CTAGGTGGCT | 1.02 ± 0.073
45 | CTAGGTGTG | 1.01 ± 0.082
46 | CTAGGTTATG | 0.978 ± 0.01
47 | CTAGGTTGAG | 0.983 ± 0.019
48 | CTAGTAGGGG | 0.984 ± 0.022
49 | CTAGTATATT | 0.993 ± 0.025
50 | CTAGTCATGC | 1.06 ± 0.0097
51 | CTAGTGCCAG | 1.016 ± 0.0069
52 | CTAGTGCTTG | 1.008 ± 0.0032

Row | Sequence | switch fluorescence ratio
53 | CTAGTGGGGA | 1.01 ± 0.017
54 | CTAGTGTCTC | 0.989 ± 0.025
55 | CTAGTTCGTC | 0.972 ± 0.12
56 | CTATAAAGTT | 0.979 ± 0.024
57 | CTATAATAGG | 0.961 ± 0.01
58 | CTATAATGAG | 0.9963 ± 0.0014
59 | CTATACGGAG | 1.09 ± 0.13
60 | CTATACGGTT | 0.983 ± 0.03
61 | CTATAGAAAT | 0.9991 ± 0.0091
62 | CTATATGTTG | 0.985 ± 0.053
63 | CTATATTAGG | 0.997 ± 0.032
64 | CTATCGTGGT | 0.9554 ± 0.0033
65 | CTATGATTTG | 0.9976 ± 0.0042
66 | CTATGCGTAC | 3.51 ± 0.89
67 | CTATGGGATT | 0.983 ± 0.022
68 | CTATGTATTG | 0.9695 ± 0.0096
69 | CTATTAATGT | 0.989 ± 0.028
70 | CTATTAGGTA | 0.977 ± 0.0046
71 | CTATTCCACC | 1.02 ± 0.023
72 | CTATTGGGTT | 1.02 ± 0.016
73 | CTATTTCGGG | 0.979 ± 0.052
74 | CTCAAAAGTT | 1.01 ± 0.026
75 | CTCACAGGGG | 3.62 ± 0.1
76 | CTCACATGGG | 1.07 ± 0.028
77 | CTCAGAAACA | 1.02 ± 0.013
78 | CTCAGCCATT | 1.36 ± 0.039

Row | Sequence | switch fluorescence ratio
79 | CTCAGGACAG | 0.995 ± 0.044
80 | CTCAGGCG | 1.17 ± 0.23
81 | CTCAGGGCGT | 0.97546 ± 0.00044
82 | CTCATAAGTT | 1.01 ± 0.028
83 | CTCATACGGG | 1.05 ± 0.036
84 | CTCATATGGA | 1.01 ± 0.048
85 | CTCATGTAAG | 1.009 ± 0.0014
86 | CTCATGTTGG | 0.983 ± 0.015
87 | CTCCACGGGA | 1.144 ± 0.011
88 | CTCCAGTCAG | 1.51 ± 0.055
89 | CTCCATGGTT | 1.06 ± 0.024
90 | CTCCCTGGGT | 1.401 ± 0.013
91 | CTCCGTTAGT | 3.1 ± 0.065
92 | CTCCTTGTCG | 1.014 ± 0.0077
93 | CTCGAATGTA | 0.994 ± 0.014
94 | CTCGAGGGTA | 1 ± 0.022
95 | CTCGATAGGT | 0.984 ± 0.028
96 | CTCGCGAATT | 1.55 ± 0.49
97 | CTCGCTGCGG | 1.029 ± 0.0073
98 | CTCGGACCTT | 1.19 ± 0.017
99 | CTCGGCGTCG | 1.03 ± 0.019
100 | CTCGGGACGG | 1.005 ± 0.01
101 | CTCGGGCAGG | 1.01 ± 0.032
102 | CTCGGGGCGG | 1.02 ± 0.037
103 | CTCGGGGGAG | 0.991 ± 0.026
104 | CTCGGGGGGA | 1.01 ± 0.018

Row | Sequence | switch fluorescence ratio
105 | CTCGGGGGTT | 1.06 ± 0.08
106 | CTCGGTGAGG | 0.991 ± 0.029
107 | CTCGGTGTGG | 1 ± 0.033
108 | CTCGGTTTAG | 1 ± 0.038
109 | CTCGGTTTTT | 0.989 ± 0.035
110 | CTCGTAATTG | 1.09 ± 0.052
111 | CTCGTGAGTT | 1.02 ± 0.021
112 | CTCGTTCGGC | 0.98 ± 0.024
113 | CTCGTTTATC | 1.03 ± 0.032
114 | CTCTAAGGCT | 1.007 ± 0.009
115 | CTCTACGAGA | 0.983 ± 0.015
116 | CTCTACTCAA | 1.37 ± 0.031
117 | CTCTATAACT | 1.0133 ± 0.00043
118 | CTCTATTGGG | 0.993 ± 0.014
119 | CTCTCAAGGG | 1.088 ± 0.0077
120 | CTCTCGGATG | 1.01 ± 0.011
121 | CTCTCTAGCA | 1.4 ± 0.015
122 | CTCTGAGGAG | 1.04 ± 0.035
123 | CTCTGCAGTG | 3.7 ± 0.5
124 | CTCTGTTTGG | 0.957 ± 0.021
125 | CTCTTATAGT | 0.969 ± 0.019
126 | CTCTTCTGGT | 0.971 ± 0.04
127 | CTCTTGGAGA | 1.01 ± 0.026
128 | CTCTTTGCGA | 1.404 ± 0.0035
129 | CTCTTTGCTT | 1 ± 0.006
130 | CTCTTTTTTT | 0.991 ± 0.014

Row | Sequence | switch fluorescence ratio
131 | CTGAAATTTT | 1.0192 ± 0.00063
132 | CTGAACAGTA | 1.02 ± 0.033
133 | CTGAACTATG | 1 ± 0.056
134 | CTGAACTGTG | 0.989 ± 0.11
135 | CTGAATACGT | 1.009 ± 0.0078
136 | CTGAATTGGG | 0.999 ± 0.021
137 | CTGACATGAG | 1 ± 0.032
138 | CTGACCGGGT | 1.014 ± 0.0015
139 | CTGACTCCAA | 2.94 ± 1.6
140 | CTGACTTTTT | 1.02 ± 0.016
141 | CTGAGCGGCT | 1.05 ± 0.051
142 | CTGAGCTGTG | 0.968 ± 0.035
143 | CTGAGGAAGT | 0.9908 ± 0.0088
144 | CTGAGGCGCC | 1.01 ± 0.056
145 | CTGAGTATGG | 1.01 ± 0.0034
146 | CTGAGTGCGG | 1.02 ± 0.023
147 | CTGAGTTACT | 1.027 ± 0.0025
148 | CTGATATTTG | 0.998 ± 0.022
149 | CTGATCTGTT | 0.998 ± 0.024
150 | CTGATGGGGA | 0.961 ± 0.033
151 | CTGATGTAGC | 1.21 ± 0.049
152 | CTGATTCGGT | 0.9889 ± 0.0027
153 | CTGATTGAGT | 0.9763 ± 0.0063

From the supplement of paper PMC10126150
